Measurements: patent US20200199231A1 (Genmab, published 2020)
Numbering of substitutions follows the chain as printed.

T1: human CD20 (human, UniProt P11836 1-297)
T1 construct: whole, on cells; On Daudi and other human B cell lines, on human B cells in blood, or transiently expressed in HEK293F cells (construct pEE12.4CD20HS-GA); also called wild type CD20; WT CD20
T1 sequence (looked up): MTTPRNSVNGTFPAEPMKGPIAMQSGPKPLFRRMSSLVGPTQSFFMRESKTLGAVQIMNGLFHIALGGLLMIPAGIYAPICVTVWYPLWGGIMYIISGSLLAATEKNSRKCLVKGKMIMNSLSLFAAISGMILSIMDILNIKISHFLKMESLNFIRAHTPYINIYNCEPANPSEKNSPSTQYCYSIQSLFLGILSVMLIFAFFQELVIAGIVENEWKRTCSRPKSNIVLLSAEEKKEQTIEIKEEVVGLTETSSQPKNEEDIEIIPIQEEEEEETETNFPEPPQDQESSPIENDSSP

T2: CD20-AxP (human, UniProt P11836 1-297)
T2 construct: whole, on cells; Transiently expressed in HEK293F cells; also called AxP mutant; CD20 mutant (CD20-AxP)
T2 sequence (looked up): T1 sequence (looked up) with A170S, P172S

T3: CD20 KDD mutant (human, UniProt P11836 1-297)
T3 construct: whole, on cells; Transiently expressed in HEK293F cells; also called T159K/N163D/N166D
T3 sequence (looked up): T1 sequence (looked up) with T159K, N163D, N166D

B1: IgG1-11B8 (antibody, V domains shown)
VH: EVQLVQSGGGLVHPGGSLRLSCTGSGFTFSYHAMHWVRQAPGKGLEWVSIIGTGGVTYYADSVKGRFTISRDNVKNSLYLQMNSLRAEDMAVYYCARDYYGAGSFYDGLYGMDVWGQGTTVTVSS
VL: EIVLTQSPATLSLSPGERATLSCRASQSVSSYLAWYQQKPGQAPRLLIYDASNRATGIPARFSGSGSGTDFTLTISSLEPEDFAVYYCQQRSDWPLTFGGGTKVEIK
notes: Monospecific, bivalent IgG1
B2: IgG1-7D8 (antibody, V domains shown)
VH: EVQLVESGGGLVQPDRSLRLSCAASGFTFHDYAMHWVRQAPGKGLEWVSTISWNSGTIGYADSVKGRFTISRDNAKNSLYLQMNSLRAEDTALYYCAKDIQYGNYYYGMDVWGQGTTVTVSS
VL: B1 VL with D93N, L96I, G100Q, K103R, V104L
notes: Monospecific, bivalent IgG1
B3: bsIgG1-huCLB-T3/4-FEALxCD20-11B8-FEAR (bispecific antibody)
heavy 1: EVQLVESGGGLVKPGGSLRLSCAASGFTFSSYGMFWVRQAPGKGLEWVATISRYSRYIYYPDSVKGRFTISRDNAKNSLYLQMNSLRAEDTAVYYCARRPLYGSSPDYWGQGTLVTVSSASTKGPSVFPLAPSSKSTSGGTAALGCLVKDYFPEPVTVSWNSGALTSGVHTFPAVLQSSGLYSLSSVVTVPSSSLGTQTYICNVNHKPSNTKVDKRVEPKSCDKTHTCPPCPAPEFEGGPSVFLFPPKPKDTLMISRTPEVTCVVVAVSHEDPEVKFNWYVDGVEVHNAKTKPREEQYNSTYRVVSVLTVLHQDWLNGKEYKCKVSNKALPAPIEKTISKAKGQPREPQVYTLPPSREEMTKNQVSLTCLVKGFYPSDIAVEWESNGQPENNYKTTPPVLDSDGSFLLYSKLTVDKSRWQQGNVFSCSVMHEALHNHYTQKSLSLSPGK
VL 1: EIVLTQSPATLSLSPGERATLSCSASSSVTYVHWYQQKPGQAPRLLIYDTSKLASGIPARFSGSGSGTDFTLTISSLEPEDFAVYYCFQGSGYPLTFGSGTKLEMR
heavy 2: EVQLVQSGGGLVHPGGSLRLSCTGSGFTFSYHAMHWVRQAPGKGLEWVSIIGTGGVTYYADSVKGRFTISRDNVKNSLYLQMNSLRAEDMAVYYCARDYYGAGSFYDGLYGMDVWGQGTTVTVSSASTKGPSVFPLAPSSKSTSGGTAALGCLVKDYFPEPVTVSWNSGALTSGVHTFPAVLQSSGLYSLSSVVTVPSSSLGTQTYICNVNHKPSNTKVDKRVEPKSCDKTHTCPPCPAPEFEGGPSVFLFPPKPKDTLMISRTPEVTCVVVAVSHEDPEVKFNWYVDGVEVHNAKTKPREEQYNSTYRVVSVLTVLHQDWLNGKEYKCKVSNKALPAPIEKTISKAKGQPREPQVYTLPPSREEMTKNQVSLTCLVKGFYPSDIAVEWESNGQPENNYKTTPPVLDSDGSFFLYSRLTVDKSRWQQGNVFSCSVMHEALHNHYTQKSLSLSPGK
VL 2: B1 VL
notes: also called huCLB-T3/4x11B8; bsIgG1-huCLB-3/4-FEALxCD20-11B8-FEAR
B4: bsIgG1-huCLB-T3/4-FEALxCD20-7D8-FEAR (bispecific antibody)
heavy 1: B3 heavy 1
VL 1: B3 VL 1
heavy 2: EVQLVESGGGLVQPDRSLRLSCAASGFTFHDYAMHWVRQAPGKGLEWVSTISWNSGTIGYADSVKGRFTISRDNAKNSLYLQMNSLRAEDTALYYCAKDIQYGNYYYGMDVWGQGTTVTVSSASTKGPSVFPLAPSSKSTSGGTAALGCLVKDYFPEPVTVSWNSGALTSGVHTFPAVLQSSGLYSLSSVVTVPSSSLGTQTYICNVNHKPSNTKVDKRVEPKSCDKTHTCPPCPAPEFEGGPSVFLFPPKPKDTLMISRTPEVTCVVVAVSHEDPEVKFNWYVDGVEVHNAKTKPREEQYNSTYRVVSVLTVLHQDWLNGKEYKCKVSNKALPAPIEKTISKAKGQPREPQVYTLPPSREEMTKNQVSLTCLVKGFYPSDIAVEWESNGQPENNYKTTPPVLDSDGSFFLYSRLTVDKSRWQQGNVFSCSVMHEALHNHYTQKSLSLSPGK
VL 2: B1 VL with D93N, L96I, G100Q, K103R, V104L
notes: also called huCLB-T3/4x7D8; bsIgG1-huCLB-3/4-FEALxCD20-7D8-FEAR
B5: bsIgG1-huCLB-T3/4-FEALxCD20-2F2-FEAR (bispecific antibody)
heavy 1: B3 heavy 1
VL 1: B3 VL 1
heavy 2: B4 heavy 2 with D15G, H30N, T57S, N77K
VL 2: B1 VL with D93N, L96I, G100Q, K103R, V104L
notes: also called huCLB-T3/4x2F2; bsIgG1-huCLB-3/4-FEALxCD20-2F2-FEAR

Key:
human CD20 [1] = molecular target: T1, human CD20; assay: flow cytometry on Daudi cells (CD20-positive, CD3-negative); PE-conjugated goat anti-human IgG F(ab')2; geomean (PE)
Description: (§1) In addition to the non-activating mutations, L234F, L235E, D265A, on both arms, the bispecific antibody contained an F405L mutation on one arm and a K409R mutation on the other arm.
(§2) Cells (1×10⁵ cells/well) were incubated in polystyrene 96-well round-bottom plates (Greiner bio-one, cat. no. 650101) with serial dilutions of antibodies (range 0.041 to 30 μg/mL in 3-fold dilution steps [A-E] and 0.00061 to 10 μg/mL in 4-fold dilution steps [F-I]) in 100 μL PBS/0.1% BSA/0.02% azide (from here designated as staining buffer) at 4° C. for 30 min.
(§3) After washing twice in staining buffer, cells were incubated in 50 μL secondary antibody at 4° C. for 30 min. As a secondary antibody, R-Phycoerythrin (PE)-conjugated goat-anti-human IgG F(ab′)₂ (cat. no. 109-116-098, Jackson ImmunoResearch Laboratories, Inc., West Grove, Pa.) diluted 1:200 in staining buffer, was used for all experiments. Next, cells were washed twice in staining buffer, re-suspended in 30 μL staining buffer and analyzed on an iQue screener (Intellicyt Corporation, USA) (for FIG. 1A-E) or re-suspended in 100 μL staining buffer and analyzed on a FACSCANTOII (BD Biosciences) (FIG. 1F-I). Binding curves were analyzed using non-linear regression (sigmoidal dose-response with variable slope) using GraphPad Prism V75.04 software (GraphPad Software, San Diego, Calif., USA).

CD20-AxP [2] = molecular target: T2, CD20-AxP; assay: flow cytometry, HEK293F transfectants, MFI mutant/MFI wt at 10 µg/mL
Description: (§4) As a secondary antibody, R-Phycoerythrin (PE)-conjugated goat-anti-human IgG F(ab′)₂ was used, as described supra. Next, cells were washed once in staining buffer, re-suspended in 150 μL staining buffer and analyzed on a flow cytometer (FACSCanto-720, Becton Dickinson, San Diego, Calif., USA) and 10,000 events per sample were acquired at high flow rate. Binding curves were analyzed using non-linear regression (sigmoidal dose-response with variable slope) using GraphPad Prism V75.04 software (GraphPad Software, San Diego, Calif., USA).
(§5) Numbers indicate the percentage of binding to the CD20 mutants, relative to binding to wild type CD20, at 10 μg/mL. The percentage of binding was calculated by the following formula: (MFI binding to CD20 mutant)/(MFI binding CD20 wt) × 100%

CD20 KDD mutant [3] = molecular target: T3, CD20 KDD mutant; assay: as above
Description: as §4, §5

human CD20 [4] = molecular target: T1, human CD20; assay: flow cytometry on HEK293F cells transiently expressing wild type CD20; PE-conjugated goat anti-human IgG F(ab')2; MFI
Description: (§6) PCR was performed on a Tgradient Thermocycler 96 (Biometra) using a 35 cycle program of: +95° C. for 15 min, followed by 35 cycles of: +94° C. for 30 sec, anneal: 55° C. for 30 sec and extension: +72° C. for 2 min, followed by a final extension step at 72° C. for 10 min and subsequent storage at 4° C. The completed reactions were analyzed by agarose gel electrophoresis. See Table 11 for details of primer pairs used for colony PCR. DNA sequencing: Plasmid DNA samples were send to AGOWA (Berlin, Germany) for sequence analysis. Sequences were analyzed using the VectorNTI software package (Informax, Frederick, Md., USA).
(§7) Mutagenesis: The mutagenesis was performed, using the QuikChange® XL Site-Directed Mutagenesis kit (Cat 200517-5, Lot 1120630, Stratagene Europe) according to the manufacturer's instructions. Mutagenesis reactions were concentrated using ethanol precipitation and transformed into either oneshot DH5α-TIR competent E. coli cells or electroporated into ElectroTen-Blue® Electroporation-Competent Cells. Colonies were checked by colony PCR and restriction digestion prior to transfection. […] Anti-CD20 Antibody binding: HEK293F cells were taken up in staining buffer (PBS supplemented with 0.1% BSA and 0.02% NaN₃) and added to round bottom plates (1-3×10⁵/well in 100 μL). […] After washing twice in staining buffer, cells were incubated in 50 μL secondary antibody at 4° C. for 30 min. As a secondary antibody, R-Phycoerythrin (PE)-conjugated goat-anti-human IgG F(ab′)₂ was used, as described supra. Next, cells were washed once in staining buffer, re-suspended in 150 μL staining buffer and analyzed on a flow cytometer (FACSCanto-720, Becton Dickinson, San Diego, Calif., USA) and 10,000 events per sample were acquired at high flow rate. Binding curves were analyzed using non-linear regression (sigmoidal dose-response with variable slope) using GraphPad Prism V75.04 software (GraphPad Software, San Diego, Calif., USA).

human CD3 = molecular target: T4, human CD3 (human, UniProt P07766 22-207); assay: flow cytometry on Jurkat cells (CD3-positive, CD20-negative); PE-conjugated goat anti-human IgG F(ab')2; median FI (PE)
T4 construct: CD3 as part of the TCR complex on Jurkat cells or human T cells; also called human CD3ε (epsilon)
Description: as §1, §2, §3

CD20-AxP [5] = molecular target: T2, CD20-AxP; assay: flow cytometry on HEK293F cells transiently expressing CD20-AxP (A170S/P172S); PE-conjugated goat anti-human IgG F(ab')2; MFI
Description: as §6, §7

CD20 KDD mutant [6] = molecular target: T3, CD20 KDD mutant; assay: flow cytometry, HEK293F cells expressing CD20 KDD mutant
Description: as §6, §7

human CD20 [7] = molecular target: T1, human CD20; assay: flow cytometry on Daudi cells (CD20-positive, CD3-negative); PE-conjugated goat anti-human IgG F(ab')2; median FI (PE)
Description: as §1, §2, §3

T4 sequence (P07766 22-207 limits assumed): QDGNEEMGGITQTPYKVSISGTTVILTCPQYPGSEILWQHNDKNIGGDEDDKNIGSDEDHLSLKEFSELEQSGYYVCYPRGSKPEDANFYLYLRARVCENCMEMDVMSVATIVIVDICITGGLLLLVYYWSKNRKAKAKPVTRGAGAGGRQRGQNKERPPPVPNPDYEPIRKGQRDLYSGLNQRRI

| EC50 (read off the curve) (human CD20 [1]) [µg/mL] | % of wt CD20 binding (CD20-AxP [2]) [%] | % of wt CD20 binding (CD20 KDD mutant [3]) [%] | EC50 (read off the curve) (human CD20 [4]) [µg/mL] | EC50 (read off the curve) (human CD3) [µg/mL] | EC50 (read off the curve) (CD20-AxP [5]) [µg/mL] | binding result (CD20 KDD mutant [6]) | EC50 (read off the curve) (human CD20 [7]) [µg/mL] | Binder |
| --- | --- | --- | --- | --- | --- | --- | --- | --- |
| ~2 | – | – | – | – | – | – | – | B1 |
| ~0.6 | – | – | – | – | – | – | – | B2 |
| – | 118 | 54 | ~0.1 | ~0.06 | ~0.3 | – | – | B3 |
| – | 113 | 3 | ~0.1 | ~0.1 | ~0.2 | no binding (tested: 0.0015-10 µg/mL) | ~0.8 | B4 |
| – | 112 | 5 | ~0.1 | ~0.06 | ~0.2 | no binding (tested: 0.0015-10 µg/mL) | ~0.3 | B5 |
